Starred links: 1 amine or outer side, 2 acyl side, 3 side chain; linkers in the order of their positions; H or OH if unused. Positions of bridges follow the written chain, without caps; N, C: chain ends. Non-standard residues stand in square brackets, D forms with d. Primed or numbered codes have the meaning given here. No end group written: not given here. ξ: configuration not given here. *: point of attachment. PyrS2″ = (S)-3-amino-1-((pent-4-en-1-yloxy)carbonyl)pyrrolidine-3-carboxylic acid (stapling residue), C=CCCCOC(=O)N1CC[C@@](N[*:1])(C(=O)[*:2])C1; B5(4) = 2,2-bis(4-pentenyl)glycine = 2-amino-2-(pent-4-en-1-yl)hept-6-enoic acid (stitching residue), C=CCCCC(CCCC=C)(N[*:1])C(=O)[*:2]; B5(5) = 2,2-bis(4-pentenyl)glycine, 2-amino-2-(pent-4-en-1-yl)hept-6-enoic acid (stitching residue), C=CCCCC(CCCC=C)(N[*:1])C(=O)[*:2]; B5(21) = 2-amino-2-(pent-4-en-1-yl)hept-6-enoic acid, bis(4-pentenyl)glycine (stitching residue), C=CCCCC(CCCC=C)(N[*:1])C(=O)[*:2]; TfeGA = (S)-2-amino-3-((carboxymethyl)(2,2,2-trifluoroethyl)amino)propanoic acid, O=C([C@H](CN(CC(=O)[*:3])CC(F)(F)F)N[*:1])[*:2]; PyrS2 = (S)-3-amino-1-((pent-4-en-1-yloxy)carbonyl)pyrrolidine-3-carboxylic acid, C=CCCCOC(=O)N1CC[C@@](N[*:1])(C(=O)[*:2])C1; B5(3) = 2,2-bis(4-pentenyl)glycine (stitching residue), C=CCCCC(CCCC=C)(N[*:1])C(=O)[*:2]; B5 = 2-amino-2-(pent-4-en-1-yl)hept-6-enoic acid, C=CCCCC(CCCC=C)(N[*:1])C(=O)[*:2]; Phe(3-COOH) = N[C@@H](Cc1cccc(C(=O)O)c1)C(=O)O; Phe(2-Cl) = N[C@@H](Cc1ccccc1Cl)C(=O)O; Bta = N[C@@H](Cc1csc2ccccc12)C(=O)O; Lys(iPr) = CC(C)NCCCC[C@H](N)C(=O)O; hTyr = N[C@@H](CCc1ccc(O)cc1)C(=O)O; αAllylPro = C=CC[C@@]1(C(=O)O)CCCN1; tBuAla = CC(C)(C)C[C@H](N)C(=O)O; 3Thi = N[C@@H](Cc1ccsc1)C(=O)O; Cha = N[C@@H](CC1CCCCC1)C(=O)O; Thr(ol) = C[C@@H](O)[C@H](N)CO; ξβ3hD = NC(CC(=O)O)CC(=O)O; hSer = N[C@@H](CCO)C(=O)O; Aib = CC(C)(N)C(=O)O; iPr = CC(C)*
B1: I-1170 (peptide)
peptide: Ac-[αAllylPro]D[tBuAla][B5(4)]DTAAFT[PyrS2″][3Thi][Bta]S-NH2
modifications: staple 1-4, 4-11
B2: I-1179 (peptide)
peptide: Ac-[αAllylPro]D[tBuAla][B5(21)]DD[Aib][Aib]FL[PyrS2″][3Thi][Bta]Q-NH2
modifications: staple 1-4, 4-11; also: earlier eluting HPLC peak (staple isomer composition)
B3: I-1176 (peptide)
peptide: Ac-[αAllylPro]D[Cha][B5(21)]DTAAFL[PyrS2″][Phe(2-Cl)][Bta]Q-NH2
modifications: staple 1-4, 4-11
B4: I-1175 (peptide)
peptide: Ac-[αAllylPro]D[Cha][B5(21)]DTAAFT[PyrS2″][Phe(2-Cl)][Bta]Q-NH2
modifications: staple 1-4, 4-11
B5: I-1161 (peptide)
peptide: Ac-[αAllylPro][ξβ3hD][tBuAla][B5(4)]D[TfeGA]AAFN[PyrS2″][3Thi][Bta]Q-NH2
modifications: staple 1-4, 4-11
B6: I-1178 (peptide)
peptide: Ac-[αAllylPro]D[tBuAla][B5(21)]DDA[Aib]FL[PyrS2″][3Thi][Bta]Q-NH2
modifications: staple 1-4, 4-11
B7: I-1169 (peptide)
peptide: Ac-[αAllylPro]D[tBuAla][B5(21)]DTAAFL[PyrS2″][Phe(2-Cl)][Bta]Q-NH2
modifications: staple 1-4, 4-11
B8: I-1168 (peptide)
peptide: Ac-[αAllylPro]D[tBuAla][B5(21)]DTAAFT[PyrS2″][Phe(2-Cl)][Bta]Q-NH2
modifications: staple 1-4, 4-11
B9: I-1167 (peptide)
peptide: Ac-[αAllylPro]D[tBuAla][B5(4)]DTAAFL[PyrS2″][3Thi][Bta]Q-NH2
modifications: staple 1-4, 4-11
B10: I-1171 (peptide)
peptide: Ac-[αAllylPro]D[tBuAla][B5(21)]DTAAFL[PyrS2″][3Thi][Bta]S-NH2
modifications: staple 1-4, 4-11
B11: I-1177 (peptide)
peptide: Ac-[αAllylPro]D[tBuAla][B5(4)]DD[Aib]AFL[PyrS2″][3Thi][Bta]Q-NH2
modifications: staple 1-4, 4-11
B12: I-1172 (peptide)
peptide: Ac-[αAllylPro]D[tBuAla][B5(21)]DTAAFL[PyrS2″][Phe(2-Cl)][Bta]S-NH2
modifications: staple 1-4, 4-11
B13: I-1173 (peptide)
peptide: Ac-[αAllylPro]D[Cha][B5(4)]DTAAFT[PyrS2″][3Thi][Bta]Q-NH2
modifications: staple 1-4, 4-11
B14: I-1166 (peptide)
peptide: Ac-[αAllylPro]D[tBuAla][B5(4)]DTAAFT[PyrS2″][3Thi][Bta]Q-NH2
modifications: staple 1-4, 4-11
B15: I-1174 (peptide)
peptide: Ac-[αAllylPro]D[Cha][B5(21)]DTAAFL[PyrS2″][3Thi][Bta]Q-NH2
modifications: staple 1-4, 4-11
B16: I-2113 (peptide)
peptide: Ac-[αAllylPro]N[Cha][B5(3)]DQ[Lys(iPr)]AFN[PyrS2″]F[Bta]Q-NH2
modifications: staple 1-4, 4-11
B17: I-2114 (peptide)
peptide: Ac-[αAllylPro]D[tBuAla][B5(4)]D[hTyr]AA[Phe(3-COOH)]N[PyrS2″][3Thi][Bta]Q-NH2
modifications: staple 1-4, 4-11; also: earlier eluting HPLC isomer composition
B18: I-1331 (peptide)
peptide: [αAllylPro]D[tBuAla][B5]DDAAFF[PyrS2][Cha][Bta]Q-NH2
modifications: staple 1-4, 4-11
B19: I-2126 (peptide)
peptide: Ac-[αAllylPro]D[tBuAla][B5(4)]DYAA[Phe(3-COOH)]L[PyrS2″][3Thi][Bta]Q-NH2
modifications: staple 1-4, 4-11
B20: I-2112 (peptide)
peptide: Ac-[αAllylPro]N[Cha][B5(3)]DQ[Lys(iPr)]AFN[PyrS2″]F[Bta]T-NH2
modifications: staple 1-4, 4-11
B21: I-2124 (peptide)
peptide: Ac-[αAllylPro]D[tBuAla][B5(4)]DYAA[Phe(3-COOH)][hSer][PyrS2″][3Thi][Bta]Q-NH2
modifications: staple 1-4, 4-11; also: earlier eluting HPLC isomer composition
B22: I-2118 (peptide)
peptide: Ac-[αAllylPro]D[tBuAla][B5(4)]DHAA[Phe(3-COOH)]N[PyrS2″][3Thi][Bta]Q-NH2
modifications: staple 1-4, 4-11; also: earlier eluting HPLC isomer composition
B23: I-2111 (peptide)
peptide: Ac-[αAllylPro]N[Cha][B5(4)]DQ[Lys(iPr)]AFN[PyrS2″]F[Bta]N-NH2
modifications: staple 1-4, 4-11
B24: I-2122 (peptide)
peptide: Ac-[αAllylPro]D[tBuAla][B5(4)]DHAA[Phe(3-COOH)]L[PyrS2″][3Thi][Bta]Q-NH2
modifications: staple 1-4, 4-11; also: earlier eluting HPLC isomer composition
B25: I-2119 (peptide)
peptide: Ac-[αAllylPro]D[tBuAla][B5(4)]DHAA[Phe(3-COOH)]N[PyrS2″][3Thi][Bta]Q-NH2
modifications: staple 1-4, 4-11; also: later eluting HPLC isomer composition
B26: I-2127 (peptide)
peptide: Ac-[αAllylPro]D[tBuAla][B5(4)]DWAA[Phe(3-COOH)]N[PyrS2″][3Thi][Bta]Q-NH2
modifications: staple 1-4, 4-11
B27: I-2116 (peptide)
peptide: Ac-[αAllylPro]D[tBuAla][B5(4)]D[hTyr]AA[Phe(3-COOH)][hSer][PyrS2″][3Thi][Bta]Q-NH2
modifications: staple 1-4, 4-11; also: earlier eluting HPLC isomer composition
B28: I-2117 (peptide)
peptide: Ac-[αAllylPro]D[tBuAla][B5(4)]D[hTyr]AA[Phe(3-COOH)][hSer][PyrS2″][3Thi][Bta]Q-NH2
modifications: staple 1-4, 4-11; also: later eluting HPLC isomer composition
B29: I-2128 (peptide)
peptide: Ac-[αAllylPro]D[tBuAla][B5(4)]DWAA[Phe(3-COOH)][hSer][PyrS2″][3Thi][Bta]Q-NH2
modifications: staple 1-4, 4-11
B30: I-2115 (peptide)
peptide: Ac-[αAllylPro]D[tBuAla][B5(4)]D[hTyr]AA[Phe(3-COOH)]N[PyrS2″][3Thi][Bta]Q-NH2
modifications: staple 1-4, 4-11; also: later eluting HPLC isomer composition
B31: I-1313 (peptide)
peptide: Ac-[αAllylPro]D[tBuAla][B5(4)]DD[Lys(iPr)]AFL[PyrS2″][Phe(2-Cl)][Bta][Thr(ol)]
modifications: staple 1-4, 4-11
B32: I-2129 (peptide)
peptide: Ac-[αAllylPro]D[tBuAla][B5(4)]DWAA[Phe(3-COOH)]L[PyrS2″][3Thi][Bta]Q-NH2
modifications: staple 1-4, 4-11
B33: I-2125 (peptide)
peptide: Ac-[αAllylPro]D[tBuAla][B5(4)]DYAA[Phe(3-COOH)][hSer][PyrS2″][3Thi][Bta]Q-NH2
modifications: staple 1-4, 4-11; also: later eluting HPLC isomer composition
B34: I-2123 (peptide)
peptide: Ac-[αAllylPro]D[tBuAla][B5(4)]DHAA[Phe(3-COOH)]L[PyrS2″][3Thi][Bta]Q-NH2
modifications: staple 1-4, 4-11; also: later eluting HPLC isomer composition
B35: I-1441 (peptide)
peptide: Ac-[αAllylPro]D[tBuAla][B5(4)]DFAAFL[PyrS2″][3Thi][Bta]Q-NH2
modifications: staple 1-4, 4-11

Target: full-length beta-Catenin (Uniprot ID P35222) (Homo sapiens (Human)) (UniProt P35222)
Assay: fluorescence polarization competition; full-length beta-catenin; competitor 5FAM-TCF4(10-53) probe
Target sequence in this assay (P35222 whole entry, one chain of several): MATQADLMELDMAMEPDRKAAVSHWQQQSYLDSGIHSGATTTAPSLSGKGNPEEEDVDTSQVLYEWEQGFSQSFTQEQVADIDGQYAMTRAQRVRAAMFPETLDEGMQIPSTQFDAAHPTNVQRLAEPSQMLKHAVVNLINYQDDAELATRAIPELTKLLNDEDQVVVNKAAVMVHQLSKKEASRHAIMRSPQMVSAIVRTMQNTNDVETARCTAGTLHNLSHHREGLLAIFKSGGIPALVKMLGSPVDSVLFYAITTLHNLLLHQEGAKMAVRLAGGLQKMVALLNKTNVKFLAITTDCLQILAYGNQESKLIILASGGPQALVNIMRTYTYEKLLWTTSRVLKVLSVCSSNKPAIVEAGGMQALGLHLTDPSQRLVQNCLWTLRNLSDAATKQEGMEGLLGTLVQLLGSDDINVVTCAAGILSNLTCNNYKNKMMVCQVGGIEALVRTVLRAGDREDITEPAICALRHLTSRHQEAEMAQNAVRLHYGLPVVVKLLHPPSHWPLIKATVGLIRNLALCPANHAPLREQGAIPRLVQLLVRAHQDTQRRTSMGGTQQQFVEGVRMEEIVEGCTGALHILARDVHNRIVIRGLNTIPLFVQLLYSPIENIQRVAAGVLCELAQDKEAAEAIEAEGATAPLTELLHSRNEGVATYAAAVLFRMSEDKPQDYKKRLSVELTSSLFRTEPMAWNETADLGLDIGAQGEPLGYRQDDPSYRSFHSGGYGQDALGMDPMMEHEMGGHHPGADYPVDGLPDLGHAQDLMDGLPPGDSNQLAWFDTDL

| Binder | EC50 |
| --- | --- |
| B1 | 15 nM |
| B2 | 346 nM |
| B3 | 169 nM |
| B4 | 24 nM |
| B5 | 24 nM |
| B6 | 54.5 nM |
| B7 | 159 nM |
| B8 | 25 nM |
| B9 | 34 nM |
| B10 | 70 nM |
| B11 | 25 nM |
| B12 | 45 nM |
| B13 | 12 nM |
| B14 | 14 nM |
| B15 | 43 nM |

Target: full-length beta-Catenin (Uniprot ID P35222) (Homo sapiens (Human)) (UniProt P35222)
Assay: fluorescence polarization competition; competitor 5FAM-TCF4(10-53) probe on full-length beta-catenin
Target sequence in this assay (P35222 whole entry, one chain of several): as above

| Binder | IC50 |
| --- | --- |
| B16 | 164 nM |
| B17 | 32 nM |
| B18 | 75 nM |
| B19 | 68 nM |
| B20 | 501 nM |
| B21 | 29 nM |
| B22 | 21 nM |
| B23 | 180 nM |
| B24 | 12 nM |
| B25 | 29 nM |
| B26 | 36 nM |
| B27 | 19 nM |
| B28 | 19 nM |
| B29 | 29 nM |
| B30 | 29 nM |
| B31 | 12 nM |
| B32 | 105 nM |
| B33 | 26 nM |
| B34 | 12 nM |

Target: full-length beta-Catenin (Uniprot ID P35222) (Homo sapiens (Human)) (UniProt P35222)
Assay: fluorescence polarization competition; full-length beta-catenin, competitor 5FAM-TCF4(10-53) probe

| Binder | IC50 | EC50 |
| --- | --- | --- |
| B1 | 15 nM |  |
| B2 | 346 nM |  |
| B35 | 327 nM |  |
| B3 | 169 nM |  |
| B18 |  | 75 nM |
| B4 | 24 nM |  |
| B5 | 24 nM |  |
| B6 | 54.5 nM |  |
| B7 | 159 nM |  |
| B8 | 25 nM |  |
| B9 | 34 nM |  |
| B10 | 70 nM |  |
| B11 | 25 nM |  |
| B31 |  | 12 nM |
| B12 | 45 nM |  |
| B13 | 12 nM |  |
| B14 | 14 nM |  |
| B15 | 43 nM |  |

Target: beta-catenin (Homo sapiens (Human)) (UniProt P35222)
Sequence (P35222 whole entry): as the sequence (P35222 whole entry, one chain of several) above
Assay: fluorescence polarization competition; full-length beta-catenin with 5FAM-TCF4(10-53) probe as competitor

| Binder | EC50 |
| --- | --- |
| B35 | 327 nM |
